In patent US20240293588A1, “THERAPEUTIC CONJUGATES” (Starpharma Pty Ltd, priority 2020, published 2024):

B1: Nanobody*-N3/DBCO-NHCO-PEG12TCO/(MeTzPh)PEG4CO-NHPEG24CO-[N(PN)2][Lys]4[Lys]8[((α-NHCy5)1(α-NHAc)7)(ε-NH-COPEG1100)8], Compound 124 (VHH)
VHH: EVQLVESGGSLVQPGGSLRLSCAASGFTFDDYAMSWVRQVPGKGLEWVSSINWSGTHTDYADSVKGRFTISRNNANNTLYLQMNSLKSEDTAVYYCAKNWRDAGTTWFEKSGSAGQGTQVTVSS
modifications: C-terminal # (unnatural amino acid, p-azido-phenylalanine) clicked to DBCO-NHCO-PEG12-TCO, joined to the tetrazine at the core of the G3 lysine dendrimer Compound 52 (1 Cy5, 7 acetyl, 8 PEG1100)
notes: also called G3 2D3 conjugated dendrimer
B2: Nanobody*-N3/DBCO-NHCO-PEG12TCO/((MeTzPh)PEG4CO-NHPEG24CO-[N(PN)2][Lys]2[Lys]4[Lys]8[Lys]16[((α-NHCy5)1(α-NHAc)15)(ε-NH-COPEG1100)16, Compound 125 (VHH)
VHH: B1 VHH
modifications: C-terminal # (unnatural amino acid, p-azido-phenylalanine) clicked to DBCO-NHCO-PEG12-TCO, joined to the tetrazine at the core of the G4 lysine dendrimer Compound 53 (1 Cy5, 15 acetyl, 16 PEG1100)
notes: also called G4 2D3 conjugated dendrimer
B3: Nanobody*-N3/DBCO-NHCO-PEG12TCO/(MeTzPh)PEG4CO-NHPEG24CO-[N(PN)2][Lys]2[Lys]4[Lys]8[Lys]16[Lys]32[((α-NHCy5)1(α-NHAc)31)(ε-NH-COPEG1100)32], Compound 126 (VHH)
VHH: B1 VHH
modifications: C-terminal # (unnatural amino acid, p-azido-phenylalanine) clicked to DBCO-NHCO-PEG12-TCO, joined to the tetrazine at the core of the G5 lysine dendrimer Compound 54 (1 Cy5, 31 acetyl, 32 PEG1100)
notes: G5 2D3 conjugated dendrimer

Columns and labels:
MDA-MB-231/HER2 tumours = experiment: Tumour distribution of tritium-labelled MMAE-conjugated dendrimers; type: in vivo, NOD/SCID mice; conditions: 3H label, 0.5 μCi via tail vein, 48 h, mean±SEM
Procedure: MDA-MB-231/HER2 cells (5×10^6 cells in 50 μL of PBS:Matrigel) were transplanted into the 4th mammary fat pad of female NOD/SCID mice (5-7 weeks old) subcutaneously. Solid tumours were allowed to grow to 100 mm^3 (approximately 3-4 weeks). The mice were divided into two different groups, consisting of six mice in each group. Compound 72 (control group) or Compound 127 (targeted group) (0.5 μCi in 100 μL, PBS pH 7) was then injected via tail vein under isoflurane sedation. The mice were anaesthetised with isoflurane 48 h later, and blood collected via cardiac puncture immediately prior to cervical dislocation. Selected organs (including tumour, liver, spleen, kidney, pancreas, lung, heart and brain) were subsequently removed, weighed and processed for tritium (^3H) biodistribution.

ErbB2-ECD = ErbB2-ECD (Homo sapiens, UniProt P04626); experiment: SPR binding studies with immobilized ErbB2-ECD; conditions: result in words
Procedure: Using a ProteOn XPR36 instrument, ErbB2-ECD was immobilized at 25° C. onto a GLC sensor chip surface (Bio-Rad), with HBS-P+ running buffer (10 mM HEPES, pH 7.4, 150 mM NaCl, 0.05% Tween 20). Standard amine coupling methodology described in Bio-Rad's amine coupling kit was utilized for this immobilization. Lane 1 was activated with a 50:50 mixture of EDC (0.5 mM) and sulfo-NHS (0.125 mM). ErbB2 protein was diluted to […] in 10 mM sodium acetate, pH 5.0 and injected over the activated surface channel. Any remaining activated sites were blocked with 1 M ethanolamine-HCl, pH 8.5.
All SPR binding experiments were performed at 25° C. using HBS-EP+/BSA (10 mM HEPES, pH 7.4, 150 mM NaCl, 3 mM EDTA, 0.05% Tween20, 0.1 mg/ml BSA) as the instrument running buffer (RB). Following immobilization procedures, various concentrations of anti-ErbB2 affibodies and their MMAE-dendrimer conjugates were injected at 60 μl/min over immobilized ErbB2 proteins and their association monitored for 90 sec. Running buffer was subsequently injected over bound Ab-ErbB2 complexes and dissociation monitored for up to 60 min. […] All binding measurements were performed in triplicate.
Collected experimental data were processed using Scrubber-Pro software (www.biologic.com.au). […]

[1] = target: T1, HER2 (human epidermal growth factor receptor 2) on cells (human, UniProt P04626 23-1255); experiment: flow cytometry (Cy5), MDA-MB-231/HER2 cells, 1 h
T1 construct: whole, on cells; also called ERBB2; HER2 receptor

[2] = target: T1, HER2 (human epidermal growth factor …); experiment: flow cytometry (Cy5), MDA-MB-231/HER2 cells, 2 h
[3] = target: T1, HER2 (human epidermal growth factor …); experiment: flow cytometry (Cy5), MDA-MB-231/HER2 cells, 4 h
[4] = target: T1, HER2 (human epidermal growth factor …); experiment: flow cytometry (Cy5), MDA-MB-231/HER2 cells, 24 h
[5] = target: T1, HER2 (human epidermal growth factor …); experiment: flow cytometry (Cy5), MDA-MB-231/HER2 cells, 0.5 h
[6] = target: T1, HER2 (human epidermal growth factor …); experiment: flow cytometry (Cy5), MDA-MB-231/HER2 cells, 0.25 h
[7] = target: T1, HER2 (human epidermal growth factor …); experiment: flow cytometry (Cy5), MDA-MB-231/HER2 cells, 3.33 nM, 37 °C, 1 h
[8] = target: T1, HER2 (human epidermal growth factor …); experiment: flow cytometry (Cy5), MDA-MB-231/HER2 cells, 3.33 nM, 37 °C, 2 h
[9] = target: T1, HER2 (human epidermal growth factor …); experiment: flow cytometry (Cy5), MDA-MB-231/HER2 cells, 3.33 nM, 37 °C, 4 h
[10] = target: T1, HER2 (human epidermal growth factor …); experiment: flow cytometry (Cy5), MDA-MB-231/HER2 cells, 3.33 nM, 37 °C, 24 h
[11] = target: T1, HER2 (human epidermal growth factor …); experiment: flow cytometry (Cy5), MDA-MB-231/HER2 cells, 3.33 nM, 37 °C, 0.5 h
Procedure: (§1) After incubation, non-binding/non-associating particles were removed from adherent cells by gently washing with DPBS three times (300 μL/well). Cells were removed from plates by treatment with TrypLE™ Express Enzyme (1×), no phenol red (150 μL/well) for 5-10 min at room temperature. The plates were then placed on ice. Cellular binding and association of sample were then determined through flow cytometry by the acquisition of the signal from Cy5.
(§2) To measure internalisation kinetics, nanobody-dendrimer was incubated with cells for 24, 4, 1, 0.5, and 0.1 hours at 37° C. before unbound nanobody-dendrimer was removed by washing and analysed by flow cytometry.

[12] = target: T1, HER2 (human epidermal growth factor …); experiment: flow cytometry (Cy5), MDA-MB-231/HER2 cells, 3.33 nM, 37 °C, 0.25 h
Procedure: as §1, §2

[13] = target: T1, HER2 (human epidermal growth factor …); experiment: flow cytometry (Cy5), HER2-positive MDA-MB-453 cells, triplicate wells
[14] = target: T1, HER2 (human epidermal growth factor …); experiment: flow cytometry (Cy5), MDA-MB-231 parental cells (HER2 lo, control), 1 h
[15] = target: T1, HER2 (human epidermal growth factor …); experiment: flow cytometry (Cy5), MDA-MB-231 parental cells (HER2 lo, control), 2 h
[16] = target: T1, HER2 (human epidermal growth factor …); experiment: flow cytometry (Cy5), MDA-MB-231 parental cells (HER2 lo, control), 4 h
[17] = target: T1, HER2 (human epidermal growth factor …); experiment: flow cytometry (Cy5), MDA-MB-231 parental cells (HER2 lo, control), 24 h
[18] = target: T1, HER2 (human epidermal growth factor …); experiment: flow cytometry (Cy5), MDA-MB-231 parental cells (HER2 lo, control), 0.5 h
[19] = target: T1, HER2 (human epidermal growth factor …); experiment: flow cytometry (Cy5), MDA-MB-231 parental cells (HER2 lo, control), 0.25 h
[20] = target: T1, HER2 (human epidermal growth factor …); experiment: flow cytometry (Cy5), MDA-MB-231 parental cells (HER2 lo, control), 3.33 nM, 37 °C, 1 h
[21] = target: T1, HER2 (human epidermal growth factor …); experiment: flow cytometry (Cy5), MDA-MB-231 parental cells (HER2 lo, control), 3.33 nM, 37 °C, 2 h
Procedure: as §1, §2

[22] = target: T1, HER2 (human epidermal growth factor …); experiment: flow cytometry (Cy5), MDA-MB-231 parental cells (HER2 lo, control), 3.33 nM, 37 °C, 4 h
Procedure: as §1, §2

[23] = target: T1, HER2 (human epidermal growth factor …); experiment: flow cytometry (Cy5), MDA-MB-231 parental cells (HER2 lo, control), 3.33 nM, 37 °C, 24 h
Procedure: as §1, §2

[24] = target: T1, HER2 (human epidermal growth factor …); experiment: flow cytometry (Cy5), MDA-MB-231 parental cells (HER2 lo, control), 3.33 nM, 37 °C, 0.5 h
Procedure: as §1, §2

[25] = target: T1, HER2 (human epidermal growth factor …); experiment: flow cytometry (Cy5), MDA-MB-231 parental cells (HER2 lo, control), 3.33 nM, 37 °C, 0.25 h
Procedure: as §1, §2

Molecule | MFI [1] | MFI [2] | MFI [3] | MFI [4] | MFI [5] | MFI [6] | percent of cellular association [7] [%] | percent of cellular association [8] [%] | percent of cellular association [9] [%] | percent of cellular association [10] [%] | percent of cellular association [11] [%] | percent of cellular association [12] [%] | MFI [13] | MFI [14] | MFI [15] | MFI [16] | MFI [17] | MFI [18] | MFI [19] | percent of cellular association [20] [%] | further results
(MeTzPh)PEG4CO-NHPEG24CO—[N(PN)2][Lys]2[^3H-Lys]4[Lys]8[(α-NHGlu-VC-PAB-MMAE)8(ε-NH-COPEG1100)8], G3 [Compound 72] |  |  |  |  |  |  |  |  |  |  |  |  |  |  |  |  |  |  |  |  | accumulation in HER2 positive tumours (MDA-MB-231/HER2 tumours): 1.88 % dose/g; blood concentration (MDA-MB-231/HER2 tumours): 3.69 % dose/g
Azido-PEG24CO—[N(PN)2][Lys]2[Lys]4[Lys]8[(α-NHGlu-vc-PAB-MMAE)8(ε-NH-COPEG1100)8], G3 [Compound 65] |  |  |  |  |  |  |  |  |  |  |  |  |  |  |  |  |  |  |  |  | binding to ErbB2 proteins (SPR) (ErbB2-ECD): No binding
Azido-PEG24CO—[N(PN)2][Lys]2[Lys]4[Lys]8[(α-NHGlu-vc-PAB-MMAE)8(ε-NH-COPEG2000)8], G3 [Compound 66] |  |  |  |  |  |  |  |  |  |  |  |  |  |  |  |  |  |  |  |  | binding to ErbB2 proteins (SPR) (ErbB2-ECD): No binding
B1 | 294 | 445 | 800 | 1110 | 226 | 235 | 2.57 | 17.4 | 50.6 | 60.7 | 0.6 | 0.67 | 50.8 | 237 | 241 | 250 | 224 | 228 | 246 | 0.8 | percent of cellular association [21]: 1.13%; percent of cellular association [22]: 0.93%; percent of cellular association [23]: 0.83%; percent of cellular association [24]: 0.87%; percent of cellular association [25]: 1.07%
B2 | 241 | 342 | 611 | 1010 | 224 | 215 | 0.77 | 6.13 | 36 | 56.3 | 0.67 | 0.57 | 158 | 230 | 236 | 246 | 219 | 223 | 227 | 1 | percent of cellular association [21]: 0.77%; percent of cellular association [22]: 0.83%; percent of cellular association [23]: 0.87%; percent of cellular association [24]: 0.53%; percent of cellular association [25]: 0.87%
B3 | 295 | 436 | 1040 | 2750 | 237 | 207 | 2.8 | 18 | 59.8 | 73.5 | 0.7 | 0.43 | 177 | 254 | 233 | 247 | 223 | 245 | 195 | 1.37 | percent of cellular association [21]: 0.73%; percent of cellular association [22]: 0.67%; percent of cellular association [23]: 0.8%; percent of cellular association [24]: 1.03%; percent of cellular association [25]: 0.53%
